No end group written: not given here.
B1: Bivalent Fc-L10-ShK[1-35] homodimer (IgG1) (Fc fusion)
chain: GGGGSGGGGSRSCIDTIPKSRCTAFQCKHSMKYRLSFCRKTCGTC
modifications: not fully specified (N-terminus, bridges); ends and bridges not checked; also: bivalent homodimer via IgG1 Fc
B2: Bivalent Fc-L10-ShK[2-35] homodimer (IgG1) (Fc fusion)
chain: GGGGSGGGGSSCIDTIPKSRCTAFQCKHSMKYRLSFCRKTCGTC
modifications: not fully specified (N-terminus, bridges); ends and bridges not checked; also: bivalent homodimer via IgG1 Fc
B3: anti-DNP antibody 3B1 (purified from hybridoma) (antibody, human IgG2, kappa, V domains shown)
VH: QVQLQESGPGLVKPSETLSLTCTVSGGSISSYYWSWIRQPPGKGLEWIGYIYYSGNTNSNPSLKSRVTISVDTSKNQFSLKLSSVTAADTAVYYCARTYYDSSGYYYRAFDIWGQGTMVTVSS
VL: DIQMTQSPSSLSASEGDRVTITCRASQGIRNDLGWYQQKPGKAPKRLIYAASSLQSGVPLRFSGSGSGTEFTLTISSLQPEDFATYYCLQYNSYPWTFGQGTKVEIKR
B4: anti-DNP antibody 3B1-G2 (recombinant, CHO) (antibody, human IgG2, kappa, V domains shown)
VH: B3 VH
VL: B3 VL
B5: anti-DNP antibody 3A1 (purified from hybridoma) (antibody, human IgG2, kappa, V domains shown)
VH: QVQLQESGPGLVKPSETLSLTCTVSGGSISHYYWSWIRQPPGKGLGWIGYIYYSGSTNYNPSLKSRVTISVDTSKNQFSLKLTSVTAADTAVYYCARARGDGYNYPDAFDIWGQGTMVTVSS
VL: DIQMTQSPSSVSASVGDRVTITCRASQGISNWLAWYQRKPGKAPKLLIYAASSLQSGVPSRFSGSGSGTDFTLTISSLQPEDFAAYYCQQASSFPWTFGQGTRVEIKR

What was measured:
[1] = molecular target: human Kv1.1 voltage-gated potassium channel (human) (UniProt Q09470); assay: cell-based or functional assay
Chain of human Kv1.1 voltage-gated potassium channel (human) (Q09470 whole entry): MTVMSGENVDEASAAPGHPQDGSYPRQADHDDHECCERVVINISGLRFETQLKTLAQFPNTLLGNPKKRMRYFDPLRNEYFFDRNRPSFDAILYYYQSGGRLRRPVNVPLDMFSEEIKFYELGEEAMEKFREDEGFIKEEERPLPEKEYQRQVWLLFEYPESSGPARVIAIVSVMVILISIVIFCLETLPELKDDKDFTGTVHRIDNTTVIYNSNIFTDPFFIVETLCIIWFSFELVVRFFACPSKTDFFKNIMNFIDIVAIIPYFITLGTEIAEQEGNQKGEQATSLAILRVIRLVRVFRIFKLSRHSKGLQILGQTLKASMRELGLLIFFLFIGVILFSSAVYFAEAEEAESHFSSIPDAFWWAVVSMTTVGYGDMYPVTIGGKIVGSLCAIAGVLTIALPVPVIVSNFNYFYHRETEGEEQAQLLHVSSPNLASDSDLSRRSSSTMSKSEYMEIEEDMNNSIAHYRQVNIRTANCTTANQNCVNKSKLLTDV

[2] = molecular target: human Kv1.3 voltage-gated potassium channel (human) (UniProt P22001); assay: cell-based or functional assay
Chain of human Kv1.3 voltage-gated potassium channel (human) (P22001 whole entry): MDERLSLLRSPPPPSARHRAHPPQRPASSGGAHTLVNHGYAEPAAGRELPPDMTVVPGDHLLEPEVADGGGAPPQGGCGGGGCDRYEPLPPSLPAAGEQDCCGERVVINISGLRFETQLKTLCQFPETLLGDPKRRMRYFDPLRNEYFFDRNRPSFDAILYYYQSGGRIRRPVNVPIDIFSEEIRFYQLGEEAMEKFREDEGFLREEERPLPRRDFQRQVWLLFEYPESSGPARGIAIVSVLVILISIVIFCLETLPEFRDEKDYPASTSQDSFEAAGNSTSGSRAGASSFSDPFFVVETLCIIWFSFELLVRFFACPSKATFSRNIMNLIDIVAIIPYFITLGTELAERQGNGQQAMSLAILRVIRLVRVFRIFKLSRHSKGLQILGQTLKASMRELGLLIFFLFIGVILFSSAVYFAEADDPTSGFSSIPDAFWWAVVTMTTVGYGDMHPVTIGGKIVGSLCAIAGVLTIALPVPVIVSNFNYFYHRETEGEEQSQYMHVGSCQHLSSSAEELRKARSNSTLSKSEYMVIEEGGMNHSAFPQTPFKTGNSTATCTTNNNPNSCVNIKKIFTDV

[3] = molecular target: DNP(3)-BSA (2,4-dinitrophenol conjugated to bovine serum albumin, 3 DNP moieties per BSA) (bovine) (UniProt P02769); assay: BIAcore SPR; antibody captured on anti-human IgG Fc surface, DNP(3)-BSA injected (0.78-100 nM); apparent constants
Chain of DNP(3)-BSA (2,4-dinitrophenol conjugated to bovine serum albumin, 3 DNP moieties per BSA) (bovine) (P02769 25-607 limits assumed): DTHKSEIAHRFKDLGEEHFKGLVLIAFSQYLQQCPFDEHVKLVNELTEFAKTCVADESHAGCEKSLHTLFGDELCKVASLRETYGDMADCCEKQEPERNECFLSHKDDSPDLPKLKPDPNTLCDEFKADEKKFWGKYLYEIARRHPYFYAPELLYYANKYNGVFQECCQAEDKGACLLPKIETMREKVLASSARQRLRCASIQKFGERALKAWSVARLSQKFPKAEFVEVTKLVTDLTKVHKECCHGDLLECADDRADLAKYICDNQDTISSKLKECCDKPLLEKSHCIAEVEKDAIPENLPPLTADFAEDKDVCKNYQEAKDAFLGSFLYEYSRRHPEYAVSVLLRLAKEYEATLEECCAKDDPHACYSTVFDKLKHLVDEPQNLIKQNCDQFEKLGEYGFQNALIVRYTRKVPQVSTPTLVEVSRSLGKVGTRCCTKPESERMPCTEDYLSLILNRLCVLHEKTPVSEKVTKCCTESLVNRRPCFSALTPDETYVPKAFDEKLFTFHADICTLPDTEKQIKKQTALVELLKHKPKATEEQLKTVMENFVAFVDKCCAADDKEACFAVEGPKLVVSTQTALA

[4] = molecular target: DNP(31)-BSA (2,4-dinitrophenol conjugated to bovine serum albumin, 31 DNP moieties per BSA) (bovine) (UniProt P02769); assay: BIAcore SPR; antibody captured on anti-human IgG Fc surface, DNP(31)-BSA injected (0.78-100 nM); apparent constants
Chain of DNP(31)-BSA (2,4-dinitrophenol conjugated to bovine serum albumin, 31 DNP moieties per BSA) (bovine) (P02769 25-607 limits assumed): as above

[5] = molecular target: DNP(31)-BSA (2,4-dinitrophenol conjugated to bovine serum albumin, 31 DNP moieties per BSA) (bovine) (UniProt P02769); assay: BIAcore SPR; antibody captured on anti-human IgG Fc surface, DNP(31)-BSA injected (0.39-50 nM); apparent constants
[6] = molecular target: DNP(3)-BSA (2,4-dinitrophenol conjugated to bovine serum albumin, 3 DNP moieties per BSA) (bovine) (UniProt P02769); assay: BIAcore SPR; antibody captured on anti-human IgG Fc surface, DNP(3)-BSA injected (0.78-100 nM); apparent constants; DNP(3)-BSA, not DNP(31)-BSA

Molecule	Kv1.1 IC50 (asterisk: whole cell patch clamp) [1] [nM]	Kv1.3 IC50 (asterisk: whole cell patch clamp) [2] [nM]	Potency Relative to ShK (WB, IL2) [2] [fold]	WB (IFNg) IC50 [2] [nM]	WB (IL-2) IC50 [2] [nM]	further results
20 kDa-PEG-ShK (peptide)	1.63	0.299	5.67			
Monovalent Fc/Fc-L10-ShK[2-35] heterodimer (IgG1) (Fc fusion)			32.1	5.2	2.15	
20 kDa-PEG-[Lys16]ShK (peptide)			1.37			
B1	0.067	0.015	5.76	0.32	0.386	
B2	0.411	0.116	8.73	2.29	0.585	
B3						Kd [3]: 3 nM; koff [3]: 0.00036 s⁻¹; kon [3]: 140000 M⁻¹ s⁻¹; Kd [4]: 0.2 nM; koff [4]: 5.8e-05 s⁻¹; kon [4]: 370000 M⁻¹ s⁻¹
B4						Kd [5]: 0.7 nM; koff [5]: 0.00031 s⁻¹; kon [5]: 420000 M⁻¹ s⁻¹
B5						Kd [3]: 526 nM; koff [3]: 0.00065 s⁻¹; Kd [4]: 9 nM; koff [4]: 0.00031 s⁻¹; kon [4]: 34000 M⁻¹ s⁻¹; kon [6]: 1200 M⁻¹ s⁻¹
